Data published in PMC8548392, “Miniature type V-F CRISPR-Cas nucleases enable targeted DNA modification in cells” (Nature Communications, 2021).
Each block holds one molecule with its values, some of them ahead of it.

Experiments:
[1] = molecular target: AsCas12f1 (Acidibacillus sulfuroxidans Cas12f1) (Acidibacillus sulfuroxidans); experiment: mass photometry; ternary complex with gRNA and dsDNA target; 200 nM Cas12f1 RNP and 25 nM DNA in binding buffer (40 mM Tris-HAc pH 8.4, 5 mM Mg acetate), 30 min at 45 °C, then diluted 1:10
[2] = molecular target: AsCas12f1 (Acidibacillus sulfuroxidans Cas12f1) (Acidibacillus sulfuroxidans); experiment: mass photometry; binary complex with gRNA; 1 µM Cas12f1 protein and 500 nM gRNA in complex assembly buffer (10 mM Tris-HCl pH 7.5, 100 mM NaCl, 1 mM EDTA, 1 mM DTT), 30 min at 37 °C, then diluted 1:10
[3] = molecular target: the molecule itself; experiment: as above
dSpCas12f1 [4] = molecular target: T1, dSpCas12f1 (Syntrophomonas palmitatica, UniProt P0DW62 1-497, D228A); experiment: mass photometry; binary complex 179 kDa, 2:1 protein:gRNA; EMSA: 40 mM Tris, 20 mM acetic acid pH 8.4, 1 mM EDTA, 0.1 mg/ml BSA, 10% glycerol, 5 mM Mg acetate, 1 nM DNA, 0-250 nM RNP, 30 min at room temperature or as indicated. Mass photometry: binary in 10 mM Tris-HCl pH 7.5, 100 mM NaCl, 1 mM EDTA, 1 mM DTT, 37 C; ternary in 40 mM Tris-acetate pH 8.4, 5 mM Mg acetate, 45 C; conditions: protein: recombinant; tags: 10xHis-MBP-TEV tag removed; chain copies: 2; single chain, folded
T1 sequence: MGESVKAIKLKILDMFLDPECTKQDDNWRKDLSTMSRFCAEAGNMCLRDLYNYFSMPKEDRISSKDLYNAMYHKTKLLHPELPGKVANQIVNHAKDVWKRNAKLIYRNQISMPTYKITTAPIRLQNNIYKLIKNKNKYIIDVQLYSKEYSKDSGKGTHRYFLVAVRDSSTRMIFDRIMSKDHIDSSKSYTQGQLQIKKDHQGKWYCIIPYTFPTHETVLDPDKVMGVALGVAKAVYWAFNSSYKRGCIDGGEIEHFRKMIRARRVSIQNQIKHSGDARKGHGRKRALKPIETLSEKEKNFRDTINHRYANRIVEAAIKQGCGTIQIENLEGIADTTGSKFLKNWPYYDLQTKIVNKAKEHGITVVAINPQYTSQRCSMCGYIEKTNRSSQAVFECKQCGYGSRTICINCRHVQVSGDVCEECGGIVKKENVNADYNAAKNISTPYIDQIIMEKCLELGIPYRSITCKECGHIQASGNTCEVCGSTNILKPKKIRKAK

dSpCas12f1 [5] = molecular target: T1, dSpCas12f1; experiment: mass photometry; ternary 2:1:1, 5 mM Mg2+, incubated at 45 C; EMSA: 40 mM Tris, 20 mM acetic acid pH 8.4, 1 mM EDTA, 0.1 mg/ml BSA, 10% glycerol, 5 mM Mg acetate, 1 nM DNA, 0-250 nM RNP, 30 min at room temperature or as indicated. Mass photometry: binary in 10 mM Tris-HCl pH 7.5, 100 mM NaCl, 1 mM EDTA, 1 mM DTT, 37 C; ternary in 40 mM Tris-acetate pH 8.4, 5 mM Mg acetate, 45 C; conditions: protein: recombinant; tags: 10xHis-MBP-TEV tag removed; chain copies: 2; label: 32P 5'-end in EMSA; guide RNA + DNA duplex
dSpCas12f1 [6] = molecular target: T1, dSpCas12f1; experiment: EMSA; 5 mM Mg2+, room temperature; EMSA: 40 mM Tris, 20 mM acetic acid pH 8.4, 1 mM EDTA, 0.1 mg/ml BSA, 10% glycerol, 5 mM Mg acetate, 1 nM DNA, 0-250 nM RNP, 30 min at room temperature or as indicated. Mass photometry: binary in 10 mM Tris-HCl pH 7.5, 100 mM NaCl, 1 mM EDTA, 1 mM DTT, 37 C; ternary in 40 mM Tris-acetate pH 8.4, 5 mM Mg acetate, 45 C; conditions: protein: recombinant; tags: 10xHis-MBP-TEV tag removed; chain copies: 2; label: 32P 5'-end; guide RNA + ssDNA
dAsCas12f1 [7] = molecular target: T2, dAsCas12f1 (Acidibacillus sulfuroxidans, UniProt A0A2U3D0N8 1-422, D225A); experiment: as above; conditions: protein: recombinant; tags: 10xHis-MBP-TEV tag removed; chain copies: 2; label: 32P 5'-end; guide RNA + ssDNA
T2 sequence: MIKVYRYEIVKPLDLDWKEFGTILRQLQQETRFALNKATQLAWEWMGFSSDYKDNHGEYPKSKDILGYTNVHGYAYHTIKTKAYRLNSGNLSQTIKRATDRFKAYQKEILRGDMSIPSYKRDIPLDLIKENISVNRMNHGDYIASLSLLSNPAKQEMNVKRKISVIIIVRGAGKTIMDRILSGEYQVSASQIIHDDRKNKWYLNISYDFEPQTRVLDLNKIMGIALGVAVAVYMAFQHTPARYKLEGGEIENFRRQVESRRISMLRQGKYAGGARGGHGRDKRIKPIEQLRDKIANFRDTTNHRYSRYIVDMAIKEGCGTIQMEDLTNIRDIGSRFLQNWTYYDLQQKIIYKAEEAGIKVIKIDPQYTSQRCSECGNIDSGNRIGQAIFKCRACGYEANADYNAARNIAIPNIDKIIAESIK

dAsCas12f1 [8] = molecular target: T2, dAsCas12f1; experiment: mass photometry; ternary 2:1:1, 5 mM Mg2+, incubated at 45 C; EMSA: 40 mM Tris, 20 mM acetic acid pH 8.4, 1 mM EDTA, 0.1 mg/ml BSA, 10% glycerol, 5 mM Mg acetate, 1 nM DNA, 0-250 nM RNP, 30 min at room temperature or as indicated. Mass photometry: binary in 10 mM Tris-HCl pH 7.5, 100 mM NaCl, 1 mM EDTA, 1 mM DTT, 37 C; ternary in 40 mM Tris-acetate pH 8.4, 5 mM Mg acetate, 45 C; conditions: protein: recombinant; tags: 10xHis-MBP-TEV tag removed; chain copies: 2; label: 32P 5'-end in EMSA; guide RNA + DNA duplex

stoichiometry N [1]: 2 | stoichiometry N [2]: 2
Molecule: AsCas12f1 (Acidibacillus sulfuroxidans Cas12f1) (from UniProt A0A2U3D0N8 1-422) (enzyme)

B1: Nuclease inactivated or dead (d) SpCas12f1 (D228A) (enzyme, Syntrophomonas palmitatica, UniProt P0DW62 1-497, looked up)
chain: MGESVKAIKLKILDMFLDPECTKQDDNWRKDLSTMSRFCAEAGNMCLRDLYNYFSMPKEDRISSKDLYNAMYHKTKLLHPELPGKVANQIVNHAKDVWKRNAKLIYRNQISMPTYKITTAPIRLQNNIYKLIKNKNKYIIDVQLYSKEYSKDSGKGTHRYFLVAVRDSSTRMIFDRIMSKDHIDSSKSYTQGQLQIKKDHQGKWYCIIPYTFPTHETVLDPDKVMGVALGVAKAVYWAFNSSYKRGCIDGGEIEHFRKMIRARRVSIQNQIKHSGDARKGHGRKRALKPIETLSEKEKNFRDTINHRYANRIVEAAIKQGCGTIQIENLEGIADTTGSKFLKNWPYYDLQTKIVNKAKEHGITVVAINPQYTSQRCSMCGYIEKTNRSSQAVFECKQCGYGSRTICINCRHVQVSGDVCEECGGIVKKENVNADYNAAKNISTPYIDQIIMEKCLELGIPYRSITCKECGHIQASGNTCEVCGSTNILKPKKIRKAK
notes: SpCas12f1, type V-F CRISPR-Cas nuclease of Syntrophomonas palmitatica, 497 aa, with D228A in the RuvC active site; The tag was removed at a TEV site (ENLYFQS), so a residue of the site may remain at the N-terminus; also called dCas12f1; source: E. coli Arctic Express (DE3), purified (Ni2+ HiTrap chelating, heparin, TEV cleavage, heparin); not shown: 10xHis, N-terminal, cleaved; MBP, N-terminal, …
stoichiometry N [3]: 2

B2: SpCas12f1 sgRNA T1, 18 nt spacer (structured_RNA)
RNA: GGGAUUUACUCUGUUUCGCGCGCCAGGGCAGUUAGGUGCCCUAAAAGAGCGAAGUGGCCGAAAGGAAAGGCUAACGCUUCUCUAACGCUACGGCGACCUUGGCGAAAUGCCAUCAAUACCACGCGGCCCGAAAGGGUUCGCGCGAAACUGAGUAAUGAAAGUCGCAUCUUGCGUAAGCGCGUGGAUUGAAACAGUUGACCCAACGUCGCC
binding result (dSpCas12f1 [4]): binds

B3: Sp sgRNA (18 nt spacer) + dsDNA target with PAM (mixed)
DNA 1: GCACCTTACTGCAAGGTAGCCACGTTCAGTTGACCCAACGTCGCCGGCGTGCACAATCTAGATGCATCAGCTGC
DNA 2: GCAGCTGATGCATCTAGATTGTGCACGCCGGCGACGTTGGGTCAACTGAACGTGGCTACCTTGCAGTAAGGTGC
binding result (dSpCas12f1 [5]): binds

B4: Sp sgRNA (18 nt spacer) + ssDNA target strand (mixed)
DNA: GCAGCTGATGCATCTAGATTGTGCACGCCGGCGACGTTGGGTCAACTGAACGTGGCTACCTTGCAGTAAGGTGC
binding result (dSpCas12f1 [6]): binds

B5: As sgRNA + ssDNA target strand (mixed)
DNA: GCAGCTGATGCATCTAGATTGTGCACGCCGGCGACGTTGGGTCAACTTAAATACGCTACCTTGCAGTAAGGTGC
binding result (dAsCas12f1 [7]): binds

B6: As sgRNA + dsDNA target with PAM (mixed)
DNA 1: GCACCTTACTGCAAGGTAGCGTATTTAAGTTGACCCAACGTCGCCGGCGTGCACAATCTAGATGCATCAGCTGC
DNA 2: GCAGCTGATGCATCTAGATTGTGCACGCCGGCGACGTTGGGTCAACTTAAATACGCTACCTTGCAGTAAGGTGC
binding result (dAsCas12f1 [8]): binds
